*1 amine or outer side, *2 acyl side, *3 side chain or, on linkers, in order; H or OH if unused. Bridges are numbered along the chain shown (N, C = ends). [ ]: non-standard residue; d: D form. The star is where a group is joined. bMe2Nal(2S,3R) = beta-methyl-2-naphthylalanine (2S,3R), C[C@H](c1ccc2ccccc2c1)[C@H](N[*:1])C(=O)[*:2]; Trp(7-Me) = Cc1cccc2c(C[C@H](N)C(=O)O)c[nH]c12; Phe(4-NH2) = Nc1ccc(C[C@H](N)C(=O)O)cc1; Ac6c(4,4-F2) = NC1(C(=O)O)CCC(F)(F)CC1; 2Nal = N[C@@H](Cc1ccc2ccccc2c1)C(=O)O; AEF = NCCOc1ccc(C[C@H](N)C(=O)O)cc1; αMeY = C[C@](N)(Cc1ccc(O)cc1)C(=O)O; αMeF = C[C@](N)(Cc1ccccc1)C(=O)O; αMeE = C[C@](N)(CCC(=O)O)C(=O)O; Cit = NC(=O)NCCC[C@H](N)C(=O)O; αMeL = CC(C)C[C@](C)(N)C(=O)O; Pen = CC(C)(S)[C@H](N)C(=O)O; αMeK = C[C@](N)(CCCCN)C(=O)O; αMeC = C[C@](N)(CS)C(=O)O; Ac6c = NC1(C(=O)O)CCCCC1; Thp = NC1(C(=O)O)CCOCC1; Abu = CC[C@H](N)C(=O)O; Ac3c = NC1(C(=O)O)CC1; Boc = CC(C)(C)OC(=O)*; Aib = CC(C)(N)C(=O)O; Propionyl = CCC(=O)*
B1: Compound No. 307 (peptide)
peptide: Propionyl-[dR][Pen]QTWQ[Pen][AEF][bMe2Nal(2S,3R)][Thp]EN[Thp]-NH2
modifications: disulfide 2-7
SMILES: CCC(=O)N[C@H](CCCNC(=N)N)C(=O)N[C@@H]1C(=O)N[C@@H](CCC(N)=O)C(=O)N[C@@H]([C@@H](C)O)C(=O)N[C@@H](Cc2c[nH]c3ccccc23)C(=O)N[C@@H](CCC(N)=O)C(=O)N[C@H](C(=O)N[C@@H](Cc2ccc(OCCN)cc2)C(=O)N[C@H](C(=O)NC2(C(=O)N[C@@H](CCC(=O)O)C(=O)N[C@@H](CC(N)=O)C(=O)NC3(C(N)=O)CCOCC3)CCOCC2)[C@H](C)c2ccc3ccccc3c2)C(C)(C)SSC1(C)C
B2: Compound No. 312 (peptide)
peptide: XNTXKXXXKKNF
modifications: MeCO-Pen-N-T-7MeTrp-K(Ac)-Pen-AEF-2Nal-aMeK-K(Ac)-N-bMePhe(S,R)-CONH2; cyclized: Pen-Pen disulfide bond
B3: Compound No. 301 (peptide)
peptide: Ac-[dR][Abu]QTWQC[AEF][2Nal][Ac6c][αMeE]NF[Aib][αMeK]-NH2
modifications: thioether 2-7
B4: Compound No. 201 (peptide)
peptide: Ac-[dR][Abu]QT[Trp(7-Me)]K(Ac)C[AEF][2Nal][αMeK]K(Ac)N[αMeF]-NH2
modifications: thioether 2-7
B5: Compound No. 309 (peptide)
peptide: Ac-[dR][Pen]NT[Trp(7-Me)]K(Ac)[Pen][AEF][2Nal][Ac3c]ENHX-NH2
modifications: disulfide 2-7; not fully specified (residue 14); printed as MeCO-F[(D)Arg]-Pen-N -T-7MeW-K(Ac)-Pen-AEF-2Nal-Acpx-E-N-H-paf-CONH2
B6: Compound No. 149 (peptide)
peptide: Ac-[dR][Pen]NT[Trp(7-Me)][Cit][Pen][AEF][2Nal][αMeL]EN[αMeF]-NH2
modifications: disulfide 2-7
SMILES: CC(=O)N[C@H](CCCNC(=N)N)C(=O)N[C@@H]1C(=O)N[C@@H](CC(N)=O)C(=O)N[C@@H]([C@@H](C)O)C(=O)N[C@@H](Cc2c[nH]c3c(C)cccc23)C(=O)N[C@@H](CCCNC(N)=O)C(=O)N[C@H](C(=O)N[C@@H](Cc2ccc(OCCN)cc2)C(=O)N[C@@H](Cc2ccc3ccccc3c2)C(=O)N[C@@](C)(CC(C)C)C(=O)N[C@@H](CCC(=O)O)C(=O)N[C@@H](CC(N)=O)C(=O)N[C@@](C)(Cc2ccccc2)C(N)=O)C(C)(C)SSC1(C)C
B7: Compound No. 306 (peptide)
peptide: Ac-[dR][Pen]NT[Trp(7-Me)][Phe(4-NH2)](Ac)[Pen][AEF][2Nal][Ac3c]EN[Thp]-NH2
modifications: disulfide 2-7
SMILES: CC(=O)Nc1ccc(C[C@@H]2NC(=O)[C@H](Cc3c[nH]c4c(C)cccc34)NC(=O)[C@H]([C@@H](C)O)NC(=O)[C@H](CC(N)=O)NC(=O)[C@@H](NC(=O)[C@@H](CCCNC(=N)N)NC(C)=O)C(C)(C)SSC(C)(C)[C@@H](C(=O)N[C@@H](Cc3ccc(OCCN)cc3)C(=O)N[C@@H](Cc3ccc4ccccc4c3)C(=O)NC3(C(=O)N[C@@H](CCC(=O)O)C(=O)N[C@@H](CC(N)=O)C(=O)NC4(C(N)=O)CCOCC4)CC3)NC2=O)cc1
B8: Compound No. 310 (peptide)
peptide: Ac-[dR]CNT[Trp(7-Me)]K(Ac)[αMeC][AEF][2Nal][Ac3c]EN[Thp]-NH2
modifications: disulfide 2-7
SMILES: CC(=O)NCCCC[C@@H]1NC(=O)[C@H](Cc2c[nH]c3c(C)cccc23)NC(=O)[C@H]([C@@H](C)O)NC(=O)[C@H](CC(N)=O)NC(=O)[C@@H](NC(=O)[C@@H](CCCNC(=N)N)NC(C)=O)CSSC[C@@](C)(C(=O)N[C@@H](Cc2ccc(OCCN)cc2)C(=O)N[C@@H](Cc2ccc3ccccc3c2)C(=O)NC2(C(=O)N[C@@H](CCC(=O)O)C(=O)N[C@@H](CC(N)=O)C(=O)NC3(C(N)=O)CCOCC3)CC2)NC1=O
B9: Compound No. 305 (peptide)
peptide: H-[dR][Pen]NT[Trp(7-Me)]K(Ac)[Pen][AEF](Boc)[2Nal][Thp]EN[αMeF]-NH2
modifications: disulfide 2-7
SMILES: CC(=O)NCCCC[C@@H]1NC(=O)[C@H](Cc2c[nH]c3c(C)cccc23)NC(=O)[C@H]([C@@H](C)O)NC(=O)[C@H](CC(N)=O)NC(=O)[C@@H](NC(=O)[C@H](N)CCCNC(=N)N)C(C)(C)SSC(C)(C)[C@@H](C(=O)N[C@@H](Cc2ccc(OCCNC(=O)OC(C)(C)C)cc2)C(=O)N[C@@H](Cc2ccc3ccccc3c2)C(=O)NC2(C(=O)N[C@@H](CCC(=O)O)C(=O)N[C@@H](CC(N)=O)C(=O)N[C@@](C)(Cc3ccccc3)C(N)=O)CCOCC2)NC1=O
B10: Compound No. 202 (peptide)
peptide: Ac-[Pen]NT[Trp(7-Me)][Cit][Pen][AEF][2Nal][αMeK]K(Ac)N[Aib][dY]-NH2
modifications: disulfide 1-6
SMILES: CC(=O)NCCCC[C@H](NC(=O)[C@](C)(CCCCN)NC(=O)[C@H](Cc1ccc2ccccc2c1)NC(=O)[C@H](Cc1ccc(OCCN)cc1)NC(=O)[C@H]1NC(=O)[C@H](CCCNC(N)=O)NC(=O)[C@H](Cc2c[nH]c3c(C)cccc23)NC(=O)[C@H]([C@@H](C)O)NC(=O)[C@H](CC(N)=O)NC(=O)[C@@H](NC(C)=O)C(C)(C)SSC1(C)C)C(=O)N[C@@H](CC(N)=O)C(=O)NC(C)(C)C(=O)N[C@H](Cc1ccc(O)cc1)C(N)=O
B11: Compound No. 302 (peptide)
peptide: Ac-[Pen]NT[Trp(7-Me)][Cit][Pen][AEF][2Nal][αMeK]K(Ac)N[Aib]-NH2
modifications: disulfide 1-6
SMILES: CC(=O)NCCCC[C@H](NC(=O)[C@](C)(CCCCN)NC(=O)[C@H](Cc1ccc2ccccc2c1)NC(=O)[C@H](Cc1ccc(OCCN)cc1)NC(=O)[C@H]1NC(=O)[C@H](CCCNC(N)=O)NC(=O)[C@H](Cc2c[nH]c3c(C)cccc23)NC(=O)[C@H]([C@@H](C)O)NC(=O)[C@H](CC(N)=O)NC(=O)[C@@H](NC(C)=O)C(C)(C)SSC1(C)C)C(=O)N[C@@H](CC(N)=O)C(=O)NC(C)(C)C(N)=O
B12: Compound No. 303 (peptide)
peptide: Ac-[dR][Pen]NT[Trp(7-Me)]K(Ac)[Pen][AEF][2Nal][Ac6c(4,4-F2)]EN[Thp]-NH2
modifications: disulfide 2-7
SMILES: CC(=O)NCCCC[C@@H]1NC(=O)[C@H](Cc2c[nH]c3c(C)cccc23)NC(=O)[C@H]([C@@H](C)O)NC(=O)[C@H](CC(N)=O)NC(=O)[C@@H](NC(=O)[C@@H](CCCNC(=N)N)NC(C)=O)C(C)(C)SSC(C)(C)[C@@H](C(=O)N[C@@H](Cc2ccc(OCCN)cc2)C(=O)N[C@@H](Cc2ccc3ccccc3c2)C(=O)NC2(C(=O)N[C@@H](CCC(=O)O)C(=O)N[C@@H](CC(N)=O)C(=O)NC3(C(N)=O)CCOCC3)CCC(F)(F)CC2)NC1=O
B13: Compound No. 308 (peptide)
peptide: Ac-[dR][Pen]NT[Trp(7-Me)]K(Ac)[Pen][AEF](Ac)[2Nal][Ac3c]EN[Thp]-NH2
modifications: disulfide 2-7
SMILES: CC(=O)NCCCC[C@@H]1NC(=O)[C@H](Cc2c[nH]c3c(C)cccc23)NC(=O)[C@H]([C@@H](C)O)NC(=O)[C@H](CC(N)=O)NC(=O)[C@@H](NC(=O)[C@@H](CCCNC(=N)N)NC(C)=O)C(C)(C)SSC(C)(C)[C@@H](C(=O)N[C@@H](Cc2ccc(OCCNC(C)=O)cc2)C(=O)N[C@@H](Cc2ccc3ccccc3c2)C(=O)NC2(C(=O)N[C@@H](CCC(=O)O)C(=O)N[C@@H](CC(N)=O)C(=O)NC3(C(N)=O)CCOCC3)CC2)NC1=O
B14: Compound No. 311 (peptide)
peptide: Ac-[Pen]NT[Trp(7-Me)]K(Ac)[Pen][4PipPhe][2Nal][αMeK]K(Ac)N[αMeF]-NH2
modifications: disulfide 1-6
B15: Compound No. 151 (peptide)
peptide: Ac-[Pen]NT[Trp(7-Me)]K(Ac)[Pen][AEF][2Nal][αMeK]K(Ac)N[αMeY]-NH2
modifications: disulfide 1-6
SMILES: CC(=O)NCCCC[C@@H]1NC(=O)[C@H](Cc2c[nH]c3c(C)cccc23)NC(=O)[C@H]([C@@H](C)O)NC(=O)[C@H](CC(N)=O)NC(=O)[C@@H](NC(C)=O)C(C)(C)SSC(C)(C)[C@@H](C(=O)N[C@@H](Cc2ccc(OCCN)cc2)C(=O)N[C@@H](Cc2ccc3ccccc3c2)C(=O)N[C@@](C)(CCCCN)C(=O)N[C@@H](CCCCNC(C)=O)C(=O)N[C@@H](CC(N)=O)C(=O)N[C@@](C)(Cc2ccc(O)cc2)C(N)=O)NC1=O
B16: Compound No. 150 (peptide)
peptide: Ac-[dR][Pen]NT[Trp(7-Me)]K(Ac)[Pen][AEF][2Nal][Thp][αMeE]N[αMeY]-NH2
modifications: disulfide 2-7
SMILES: CC(=O)NCCCC[C@@H]1NC(=O)[C@H](Cc2c[nH]c3c(C)cccc23)NC(=O)[C@H]([C@@H](C)O)NC(=O)[C@H](CC(N)=O)NC(=O)[C@@H](NC(=O)[C@@H](CCCNC(=N)N)NC(C)=O)C(C)(C)SSC(C)(C)[C@@H](C(=O)N[C@@H](Cc2ccc(OCCN)cc2)C(=O)N[C@@H](Cc2ccc3ccccc3c2)C(=O)NC2(C(=O)N[C@@](C)(CCC(=O)O)C(=O)N[C@@H](CC(N)=O)C(=O)N[C@@](C)(Cc3ccc(O)cc3)C(N)=O)CCOCC2)NC1=O

The binders below were run against T1, human IL-23R (interleukin-23 receptor) (human, UniProt Q5VWK5 24-629) (assay: cell-based or functional assay).
T1 sequence (looked up): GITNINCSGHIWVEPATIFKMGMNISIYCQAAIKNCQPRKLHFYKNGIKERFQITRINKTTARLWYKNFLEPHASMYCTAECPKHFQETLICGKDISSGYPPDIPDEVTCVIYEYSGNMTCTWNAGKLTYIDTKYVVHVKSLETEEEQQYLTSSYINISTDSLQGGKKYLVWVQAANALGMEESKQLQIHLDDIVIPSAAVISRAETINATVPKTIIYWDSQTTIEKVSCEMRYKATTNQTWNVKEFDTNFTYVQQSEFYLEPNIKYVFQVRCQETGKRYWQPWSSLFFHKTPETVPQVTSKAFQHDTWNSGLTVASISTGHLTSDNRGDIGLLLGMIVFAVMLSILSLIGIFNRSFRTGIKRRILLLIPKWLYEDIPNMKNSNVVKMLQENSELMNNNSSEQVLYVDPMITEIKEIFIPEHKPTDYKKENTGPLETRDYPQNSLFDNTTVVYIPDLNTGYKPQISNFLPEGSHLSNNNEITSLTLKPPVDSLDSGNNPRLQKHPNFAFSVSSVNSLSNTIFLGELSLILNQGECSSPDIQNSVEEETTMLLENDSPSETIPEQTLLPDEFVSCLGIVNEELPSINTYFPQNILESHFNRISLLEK
B1 was tested, and the “PBMC pSTAT3 IC50 (nM)” value was 52 nM.
With B2 the “PBMC pSTAT3 IC50 (nM)” value was 90 nM.
With B3 the “PBMC pSTAT3 IC50 (nM)” value was 24 nM.
In the case of B4, the “pStat3 HTRF (nM), IC50, DB cells IL23R pSTAT3 cell assay” value is reported as 12.7 nM.
B5 was tested, and the “PBMC pSTAT3 IC50 (nM)” value was 8 nM.
With B6 the “PBMC pSTAT3 IC50 (nM)” value was 2.3 nM.
In the case of B7, the “PBMC pSTAT3 IC50 (nM)” value is reported as 9.6 nM.
In the case of B8, the “PBMC pSTAT3 IC50 (nM)” value is reported as 9.9 nM.
B9 was tested, and the “PBMC pSTAT3 IC50 (nM)” value was 17 nM.
With B10 the “pStat3 HTRF (nM), IC50, DB cells IL23R pSTAT3 cell assay” value was 0.637 nM.
In the case of B11, the “PBMC pSTAT3 IC50 (nM)” value is reported as 7 nM.
In the case of B12, the “PBMC pSTAT3 IC50 (nM)” value is reported as 1.3 nM.
In the case of B13, the “PBMC pSTAT3 IC50 (nM)” value is reported as 8 nM.
In the case of B14, the “PBMC pSTAT3 IC50 (nM)” value is reported as 290 nM.
For B15, the “PBMC pSTAT3 IC50 (nM)” value was 5.7 nM.
For B16, the “PBMC pSTAT3 IC50 (nM)” value was 4.7 nM.
